Where two headings read alike, the source gives them in different places. Values belong to the molecule of their own block, whether it stands above or below them.
Assays:
MjFsr = target: T1, MjFsr (Methanocaldococcus jannaschii, UniProt Q58280); assay: X-ray crystal structure, […] Å; assay type: binding; conditions: F420H2-oxidase domain
T1 construct: gene fsr; full length, native purification from M. jannaschii grown on sulfite; homotetramer, residues to 620
T1 sequence (Q58280 1-620): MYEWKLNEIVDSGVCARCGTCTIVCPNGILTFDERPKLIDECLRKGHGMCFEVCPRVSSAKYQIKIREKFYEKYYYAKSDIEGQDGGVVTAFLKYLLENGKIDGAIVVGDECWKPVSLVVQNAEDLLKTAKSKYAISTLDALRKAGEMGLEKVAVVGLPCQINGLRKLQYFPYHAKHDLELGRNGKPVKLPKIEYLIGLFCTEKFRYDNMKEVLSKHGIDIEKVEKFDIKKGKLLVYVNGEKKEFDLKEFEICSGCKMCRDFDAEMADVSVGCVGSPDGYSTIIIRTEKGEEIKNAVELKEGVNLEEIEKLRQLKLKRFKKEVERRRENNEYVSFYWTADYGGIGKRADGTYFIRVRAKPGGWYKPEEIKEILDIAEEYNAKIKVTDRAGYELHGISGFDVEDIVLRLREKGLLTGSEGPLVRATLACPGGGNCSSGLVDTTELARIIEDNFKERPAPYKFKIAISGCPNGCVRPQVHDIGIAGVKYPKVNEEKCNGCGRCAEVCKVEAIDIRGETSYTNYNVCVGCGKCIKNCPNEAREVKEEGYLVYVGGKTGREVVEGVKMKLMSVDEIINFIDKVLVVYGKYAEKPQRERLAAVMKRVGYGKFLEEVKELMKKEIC

MtFsr = test system: T2, MtFsr; assay: F420H2 oxidation followed at […] nm; assay type: biochemical, Methanothermococcus thermolithotrophicus; conditions: anaerobic, read-out: Apparent Km
T2 construct: gene fsr; full length, native purification from M. thermolithotrophicus grown on sulfite (assays) or sulfate (crystals); FAD, siroheme, six [4Fe-4S] clusters per subunit

[1] = target: coenzyme F420-dependent sulfite reductase (Group I Fsr) from Methanothermococcus thermolithotrophicus (Methanothermococcus thermolithotrophicus (endogenous in strain DSM 2095)); assay: crystal structure; MtFsr at 11 mg/ml cocrystallized with FAD and F420H2; 200 mM lithium sulfate, 100 mM Bis-Tris pH 5.5, 25% w/v PEG 3350; anaerobic, 20 °C; four homotetramers in the asymmetric unit
[2] = target: coenzyme F420-dependent sulfite reductase (Group I Fsr) from Methanothermococcus thermolithotrophicus (Methanothermococcus thermolithotrophicus (endogenous in strain DSM 2095)); assay: SEC; purified MtFsr on Superdex 200 Increase 10/300 GL, 0.4 ml/min, 25 mM Tris-HCl pH 7.6, 10% v/v glycerol, 2 mM DTT, anaerobic; standards conalbumin, aldolase, ferritin; apparent molecular weight
[3] = target: coenzyme F420-dependent sulfite reductase (Group I Fsr) from Methanothermococcus thermolithotrophicus (Methanothermococcus thermolithotrophicus (endogenous in strain DSM 2095)); assay: native gel or EMSA; anaerobic high-resolution clear-native PAGE (8-15% gradient) of cell extracts of cultures grown on 2 mM Na2S or 2 mM Na2SO3
[4] = target: the molecule itself; assay: crystal structure; MjFsr at 6.1 mg/ml; 45% v/v 2-methyl-2,4-pentanediol, 100 mM Bis-Tris pH 5.5, 200 mM calcium chloride; anaerobic, 20 °C; two half homotetramers in the asymmetric unit

Molecule: Cc1cc2nc3c(=O)[nH]c(=O)nc-3n(C[C@H](O)[C@H](O)[C@H](O)COP(=O)(O)OP(=O)(O)OC[C@H]3O[C@@H](n4cnc5c(N)ncnc54)[C@H](O)[C@@H]3O)c2cc1C [FAD]
X-ray crystal structure, 2.30 Å (MjFsr): The active site of the F420H2-oxidase domain of Fsr contains a flavin adenine dinucleotide (FAD

Molecule: O=NO [NO2^−]
Km (MtFsr; 0-500 µM NaNO2, 50 µM F420H2, 200 mM KH2PO4 pH 7.0, 50 °C): 2.5 ± 0.2 µM

Km (MtFsr; 0-500 µM Na2SO3, 50 µM F420H2, 200 mM KH2PO4 pH 7.0, 50 °C): 15.6 ± 2 µM
Molecule: O=S(O)O [SO3^2−]

stoichiometry N [1]: 4
stoichiometry N [2]: 4
stoichiometry N [3]: 4
Molecule: coenzyme F420-dependent sulfite reductase (Group I Fsr) from Methanothermococcus thermolithotrophicus

B1: coenzyme F420-dependent sulfite reductase (Group I Fsr) from Methanocaldococcus jannaschii (enzyme, UniProt Q58280 1-620, looked up)
chain: MYEWKLNEIVDSGVCARCGTCTIVCPNGILTFDERPKLIDECLRKGHGMCFEVCPRVSSAKYQIKIREKFYEKYYYAKSDIEGQDGGVVTAFLKYLLENGKIDGAIVVGDECWKPVSLVVQNAEDLLKTAKSKYAISTLDALRKAGEMGLEKVAVVGLPCQINGLRKLQYFPYHAKHDLELGRNGKPVKLPKIEYLIGLFCTEKFRYDNMKEVLSKHGIDIEKVEKFDIKKGKLLVYVNGEKKEFDLKEFEICSGCKMCRDFDAEMADVSVGCVGSPDGYSTIIIRTEKGEEIKNAVELKEGVNLEEIEKLRQLKLKRFKKEVERRRENNEYVSFYWTADYGGIGKRADGTYFIRVRAKPGGWYKPEEIKEILDIAEEYNAKIKVTDRAGYELHGISGFDVEDIVLRLREKGLLTGSEGPLVRATLACPGGGNCSSGLVDTTELARIIEDNFKERPAPYKFKIAISGCPNGCVRPQVHDIGIAGVKYPKVNEEKCNGCGRCAEVCKVEAIDIRGETSYTNYNVCVGCGKCIKNCPNEAREVKEEGYLVYVGGKTGREVVEGVKMKLMSVDEIINFIDKVLVVYGKYAEKPQRERLAAVMKRVGYGKFLEEVKELMKKEIC
notes: Group I coenzyme F420-dependent sulfite reductase (Fsr) of Methanocaldococcus jannaschii DSM 2661; Native enzyme, no tag; Each chain carries FAD, six [4Fe-4S] clusters and a siroheme; also called MjFsr; source: purified natively from M. jannaschii DSM 2661 cells under anaerobic atmosphere (Q Sepharose, Source15Phe, Superdex 200)
stoichiometry N [4]: 4

From publication PMC10229431, “Structures of the sulfite detoxifying F420-dependent enzyme from Methanococcales” (Nature Chemical Biology, 2023)
